Laboratory results as given in US20260250398A1.

Target: FZD1/2/4/5/7/8
Test: cell-based or functional assay

Row | TOPFLASH Maximal Signal (% Wnt3a maxima) (% Wnt3a maxima) | TOPFLASH % Wnt Maxima | TOPFLASH EC50 | Binder
1 | 22 |  |  | CH3 (Dia-CH3-Dia; paratopes 5019; 2539) (bispecific antibody) MNLLLILTFVAAAVAEFEVQLVESGGGLVQPGGSLRLSCAASGFNIGSSSIHWVRQAPGKGLEWVASIYSAFASTSYADSVKGRFTISADTSKNTAYLQMNSLRAEDTAVYYCARYHFPFGFALDYWGQGTLVTVSSGGGGSDIQMTQSPSSLSASVGDRVTITCRASQSVSSAVAWYQQKPGKAPKLLIYSASSLYSGVPSRFSGSRSGTDFTLTISSLQPEDFATYYCQQGVYLFTFGQGTKVEIKDKTHTKVEPKTSDKTHTCPPCPGQPREPQVYTLPPSREEMTKNQVSLTCLVKGFYPSDIAVEWESNGQPENNYKTTPPVLDSDGSFFLYSKLTVDKSRWQQGNVFSCSVMHEALHNHYTQKSLSLSPGKGTTAASGSSGGSSSGAGRTEVQLVESGGGLVQPGGSLRLSCAASGFNISYSSIHWVRQAPGKGLEWVAYISSYYGYTYYADSVKGRFTISADTSKNTAYLQMNSLRAEDTAVYYCARAHYFPWAGAMDYWGQGTLVTVSSGGGGSDIQMTQSPSSLSASVGDRVTITCRASQSVSSAVAWYQQKPGKAPKLLIYSASSLYSGVPSRFSGSRSGTDFTLTISSLQPEDFATYYCQQYSWGPFTFGQGTKVEIK
2 |  | 42 % Wnt Maxima | 0.4 nM | CT0003 (Table 5: FZD Diabody-Fc-LRP scFv; paratopes 5016; 2539, 2542) (bispecific antibody) chain 1: MNLLLILTFVAAAVAEFEVQLVESGGGLVQPGGSLRLSCAASGFNISSYYIHWVRQAPGKGLEWVASIYSSYGYTSYADSVKGRFTISADTSKNTAYLQMNSLRAEDTAVYYCARTVRGSKKPYFSGWAMDYWGQGTLVTVSSGGGGSDIQMTQSPSSLSASVGDRVTITCRASQSVSSAVAWYQQKPGKAPKLLIYSASSLYSGVPSRFSGSRSGTDFTLTISSLQPEDFATYYCQQYSWGPFTFGQGTKVEIKLEDKTHTKVEPKSSDKTHNCPPCPAPELLGGPSVFLFPPKPKDTLMISRTPEVTCVVVDVSHEDPEVKFNWYVDGVEVHNAKTKPREEQYNSTYRVVSVLTVLHQDWLNGKEYKCKVSNKALPAPIEKTISKAKGQPREPQVYTLPPIRELMTSNQVSLSCAVKGFYPSDIAVEWESNGQPENNYKTTPPVLDSDGSFFLVSKLTVDKSRWQQGNVFSCSVMHEALHNHYTQKSLSLSPGKSGSETPGTSESATPESGGGEVQLVESGGGLVQPGGSLRLSCAASGFNIHSSSIHWVRQAPGKGLEWVAATYSSFGSITYADSVKGRFTISADTSKNTAYLQMNSLRAEDTAVYYCARYHHPFGYALDYWGQGTLVTVSSGTTAASGSSGGSSSGADIQMTQSPSSLSASVGDRVTITCRASQSVSSAVAWYQQKPGKAPKLLIYSASSLYSGVPSRFSGSRSGTDFTLTISSLQPEDFATYYCQQGVYLFTFGQGTKVEIK chain 2: MNLLLILTFVAAAVAEFEVQLVESGGGLVQPGGSLRLSCAASGFNISYSSIHWVRQAPGKGLEWVAYISSYYGYTYYADSVKGRFTISADTSKNTAYLQMNSLRAEDTAVYYCARAHYFPWAGAMDYWGQGTLVTVSSGGGGDIQMTQSPSSLSASVGDRVTITCRASQSVSSAVAWYQQKPGKAPKLLIYSASSLYSGVPSRFSGSRSGTDFTLTISSLQPEDFATYYCQQYYWPITFGQGTKVEIKLEDKTHTKVEPKTSDKTHTCPPCPAPELLGGPSVFLFPPKPKDTLMISRTPEVTCVVVDVSHEDPEVKFNWYVDGVEVHNAKTKPREEQYNSTYRVVSVLTVLHQDWLNGKEYKCKVSNKALPAPIEKTISKAKGQPREPMVFDLPPSREEMTKNQVSLWCMVKGFYPSDIAVEWESNGQPENNYKTTPPVLDSDGSFFLYSKLTVDKSRWQQGNVFSCSVMHEALHNHYTQKSLSLSPGKSGSETPGTSESATPESGGGEVQLVESGGGLVQPGGSLRLSCAASGFNIHSSSIHWVRQAPGKGLEWVAATYSSFGSITYADSVKGRFTISADTSKNTAYLQMNSLRAEDTAVYYCARYHHPFGYALDYWGQGTLVTVSSGTTAASGSSGGSSSGADIQMTQSPSSLSASVGDRVTITCRASQSVSSAVAWYQQKPGKAPKLLIYSASSLYSGVPSRFSGSRSGTDFTLTISSLQPEDFATYYCQQGVYLFTFGQGTKVEIK
3 | 42 |  | 0.4 nM | Fab-Dia (paratopes 5016; 2540/2542) (bispecific antibody) heavy: EVQLVESGGGLVQPGGSLRLSCAASGFNIHSSSIHWVRQAPGKGLEWVAATYSSFGSITYADSVKGRFTISADTSKNTAYLQMNSLRAEDTAVYYCARYHHPFGYALDYWGQGTLVTVSSASTKGPSVFPLAPSSKSTSGGTAALGCLVKDYFPEPVTVSWNSGALTSGVHTFPAVLQSSGLYSLSSVVTVPSSSLGTQTYICNVNHKPSNTKVDKKVEPKSCDKTHTGGSGGEVQLVESGGGLVQPGGSLRLSCAASGFTISYSSIHWVRQAPGKGLEWVASISPYYGYTYYADSVKGRFTISADTSKNTAYLQMNSLRAEDTAVYYCARSSYFPWFSAMDYWGQGTLVTVSSGGGGSDIQMTQSPSSLSASVGDRVTITCRASQSVSSAVAWYQQKPGKAPKLLIYSASSLYSGVPSRFSGSRSGTDFTLTISSLQPEDFATYYCQQYYWPITFGQGTKVEIK light: DIQMTQSPSSLSASVGDRVTITCRASQSVSSAVAWYQQKPGKAPKLLIYSASSLYSGVPSRFSGSRSGTDFTLTISSLQPEDFATYYCQQGVYLFTFGQGTKVEIKRTVAAPSVFIFPPSDEQLKSGTASVVCLLNNFYPREAKVQWKVDNALQSGNSQESVTEQDSKDSTYSLSSTLTLSKADYEKHKVYACEVTHQGLSSPVTKSFNRGECGGGGSEVQLVESGGGLVQPGGSLRLSCAASGFTISSYYIHWVRQAPGKGLEWVASIYSSYGYTSYADSVKGRFTISADTSKNTAYLQMNSLRAEDTAVYYCARTVRGSKKPYFSGWAMDYWGQGTLVTVSSGGGGSDIQMTQSPSSLSASVGDRVTITCRASQSVSSAVAWYQQKPGKAPKLLIYSASSLYSGVPSRFSGSRSGTDFTLTISSLQPEDFATYYCQQYYFLITFGQGTKVEIK
